Assay results published in PMC10233817.
Where two headings read alike, the source gives them in different places.

Legend:
[1] = target: T1, EWS RRM-RG2 (UniProt Q01844 361-517); assay: ITC
T1 sequence: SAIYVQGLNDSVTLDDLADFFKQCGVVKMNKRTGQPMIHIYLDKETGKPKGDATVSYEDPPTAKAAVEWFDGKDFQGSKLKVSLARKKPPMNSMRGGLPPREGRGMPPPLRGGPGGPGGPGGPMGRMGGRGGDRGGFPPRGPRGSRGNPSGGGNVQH

[2] = target: T2, EWS RRM (UniProt Q01844 361-447); assay: ITC
T2 sequence: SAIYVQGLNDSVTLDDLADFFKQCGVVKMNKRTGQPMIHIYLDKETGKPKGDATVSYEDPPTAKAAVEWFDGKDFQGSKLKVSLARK

[3] = target: T3, EWS RRM-RG2-ZnF (UniProt Q01844 361-549); assay: ITC
Target sequence in this assay (Q01844 361-549): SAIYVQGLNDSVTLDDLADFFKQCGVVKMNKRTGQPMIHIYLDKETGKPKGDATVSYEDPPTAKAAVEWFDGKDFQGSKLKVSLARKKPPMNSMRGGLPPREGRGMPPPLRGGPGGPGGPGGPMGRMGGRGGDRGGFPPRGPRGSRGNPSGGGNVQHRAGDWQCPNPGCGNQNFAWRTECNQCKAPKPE

[4] = target: T3, EWS RRM-RG2-ZnF; assay: EMSA
[5] = target: T1, EWS RRM-RG2; assay: EMSA
[6] = target: T3, EWS RRM-RG2-ZnF; assay: EMSA; remark: listed apart in the source
[7] = target: T1, EWS RRM-RG2; assay: EMSA; remark: listed apart in the source

## TAAGGGAGGGCGGGAGGGAA (structured_DNA) [pu20m2 DNA G4]
[1]
  Kd: 3.28 ± 0.5 µM
[2]
  Kd: 22.3 ± 6.8 µM
[3]
  Kd: 3.96 ± 0.7 µM

## GGAUCUUUAACUACUCAAGAUACUGAACAUGACAUGGUA (structured_RNA) [SON-GGU]
[4]
  binding result: binds
[5]
  binding result: binds

B1: RNA:DNA hybrid (DNA:RNA)
RNA: GCAGCUGGCACGACAGGUAUGAAUC
DNA: GATTCATACCTGTCGTGCCAGCTGC
[6]
  binding result: binds
[7]
  binding result: binds
